The source of these data is article PMC3735781 (Journal of the American Chemical Society, 2013).

Holding throughout (test): HPLC steady-state kinetics, amide hydrolysis at lactyl moiety
The test system of data set [1] is CC(=O)N[C@H]1[C@@H]2OC[C@@H](O2)[C@@H](O)[C@@H]1O[C@H](C)C(=O)N[C@@H](C)C(=O)N[C@H](CCC(=O)N[C@@H](CCC[C@@H](N)C(=O)O)C(=O)N[C@H](C)C(=O)O)C(=O)O. It is filed as biochemical, Pseudomonas aeruginosa. The conditions noted are these: 25 °C (Figure 2 reaction).
The next data set concerns the target T1, AmpDh2 (Pseudomonas aeruginosa, UniProt Q9HT86).
T1 sequence (Q9HT86 18-259): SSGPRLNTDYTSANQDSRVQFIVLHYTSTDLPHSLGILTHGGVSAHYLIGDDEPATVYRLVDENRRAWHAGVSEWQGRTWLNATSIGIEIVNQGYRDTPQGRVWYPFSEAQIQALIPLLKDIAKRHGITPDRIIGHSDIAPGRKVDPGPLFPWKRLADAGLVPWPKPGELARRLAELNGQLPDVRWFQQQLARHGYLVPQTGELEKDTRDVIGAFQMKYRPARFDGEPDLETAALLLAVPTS
It is filed as biochemical. The conditions noted are these: 100 μM ZnCl2.

The target in another data set is T2, AmpDh3 (Pseudomonas aeruginosa, UniProt Q9I5D1).
T2 sequence (Q9I5D1 1-255): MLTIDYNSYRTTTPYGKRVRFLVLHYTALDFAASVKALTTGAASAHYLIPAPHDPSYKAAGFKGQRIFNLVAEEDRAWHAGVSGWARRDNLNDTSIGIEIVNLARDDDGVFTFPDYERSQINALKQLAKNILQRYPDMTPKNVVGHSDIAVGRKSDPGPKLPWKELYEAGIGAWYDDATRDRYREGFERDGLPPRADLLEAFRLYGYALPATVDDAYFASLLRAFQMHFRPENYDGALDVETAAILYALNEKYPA
In kind it is biochemical. The conditions noted are these: 100 μM ZnCl2.

Substrate in data set [2]: CC(=O)N[C@H]1[C@@H]2OC[C@@H](O2)[C@@H](O)[C@@H]1O[C@H](C)C(=O)N[C@@H](C)C(=O)N[C@H](CCC(=O)N[C@@H](CCC[C@@H](N)C(=O)O)C(=O)N[C@H](C)C(=O)O)C(=O)O
It is filed as biochemical, Pseudomonas aeruginosa. The conditions noted are these: 100 μM ZnCl2.

Consider AmpD (Pseudomonas aeruginosa PAO1), for which, in data set [1], the Michaelis-Menten constant (Km) (commonly the substrate concentration at which the rate is half of its maximum) stood at 1200 ± 300 µM; the kcat (in general, the number of substrate molecules converted per active site and unit of time at saturation) amounted to 39.8 ± 3.1 s⁻¹; the kcat/Km – broadly, the turnover number divided by the Michaelis constant – amounted to 33200 ± 7500 M⁻¹ s⁻¹.
On to muramyl tetrapeptide 8 [compound 8], for which the values for the Michaelis constant (Km) on AmpDh2 and at AmpDh3 were 1800 ± 300 µM and 1400 ± 200 µM, respectively.

B1: AmpDh3 (Pseudomonas aeruginosa PAO1) (protein)
chain: MLTIDYNSYRTTTPYGKRVRFLVLHYTALDFAASVKALTTGAASAHYLIPAPHDPSYKAAGFKGQRIFNLVAEEDRAWHAGVSGWARRDNLNDTSIGIEIVNLARDDDGVFTFPDYERSQINALKQLAKNILQRYPDMTPKNVVGHSDIAVGRKSDPGPKLPWKELYEAGIGAWYDDATRDRYREGFERDGLPPRADLLEAFRLYGYALPATVDDAYFASLLRAFQMHFRPENYDGALDVETAAILYALNEKYPA
B1: in data set [2], the Km came out at 4500 ± 600 µM, the kcat was 70.6 ± 6.6 s⁻¹ and the kcat/Km stood at 15700 ± 1900 M⁻¹ s⁻¹.
